Experimental findings from patent US20040037843A1 (published 2004) are described below.

Test [1] has as its target HLA-A*0201 (human).
The target in test [2] is HLA-A*0202 (human). The test can be described thus: competition with 125I-labelled standard peptide for purified HLA.
In test [3] the target is HLA-A*0203 (human). The test can be described thus: competition with 125I probe peptide on purified HLA, gel filtration. (Size exclusion chromatography separates by hydrodynamic size, large species first.)
The target in test [4] is HLA-A*0202 (human). The experiment in a line: inhibition of 125I probe peptide binding to purified HLA, gel filtration.
Test [5] concerns the target HLA-A*0201 (human). The experiment in a line: inhibition of 125I probe peptide binding to purified HLA.
Test [6] addresses HLA-A*0206 (human). The description is as above.
In test [7] the target is HLA-A*0203 (human). The test is described as above.
The target of test [8] is HLA-A*6802 (human). The test is described as above.
Test [9] addresses HLA-A*0203 (human).
For test [10], the target named is HLA-A*0206 (human).
For test [11], the target named is HLA-A*0202 (human).
Test [12] has as its target HLA-A*0201 (human). The source holds these as a separate data set.
Test [13] deals with HLA-A*0201 (human). The test can be described thus: competition with 125I-labeled probe peptide for purified HLA, gel filtration.
Test [14] has as its target HLA-A*0203 (human). The test is described as above.
Test [15] deals with HLA-A*0206 (human). Described as above.
For test [16], the target named is HLA-A*6802 (human). The test is described as above.

Broadly, the IC50 is the point on the concentration scale where inhibition reaches its midpoint.

Like-named read-outs stand apart in the source and are kept apart here.

LMYSLVHNL [PSM.469] came in with an IC50 in the test with HLA-A*0201 [1] of at most 200 nM.

MLLRLSEPAEL [PSA.118 (11-mer MLLRLSEPAEL)]: the half-inhibitory concentration (IC50) with HLA-A*0201 [1] was at most 200 nM.

As for FLTLSVTWIGV [peptide 1419.27, PSA.3.V11], the concentration for half-maximal inhibition (IC50) with HLA-A*0202 [2] is 3 nM.

LLLARAASLSL [PAP.6]: the half-inhibitory concentration (IC50) in the test with HLA-A*0201 [1] is at most 200 nM.

TVSGLQMAV [Peptide 60.0213 TVSGLQMAV (PAP.292.V9)] yielded a concentration for half-maximal inhibition (IC50) with HLA-A*0203 [3] of 122 nM. This lies in the sub-micromolar range.

With FLTLSVTWIGV [Peptide 63.0186 (PSA.3.V11)], the half-maximal inhibitory concentration (IC50) with HLA-A*0202 [4] was 3 nM.

For TLMSAMTNL [PAP.112], the IC50 with HLA-A*0201 [1] was at most 200 nM.

In the test with HLA-A*0201 [1], LLHETDSAV [PSM.4] displayed an IC50 above 200 nM.

As to LLLARAASLSL [Peptide 63.0136 LLLARAASLSL (PAP.6)], the IC50 with HLA-A*0201 [5] was 8.1 nM; with HLA-A*0206 [6] it was 80 nM; with HLA-A*0203 [7] it was 5.3 nM.

Regarding ALVLAGGFFL [PSM.25], the IC50 in the test with HLA-A*0201 [1] was above 200 nM.

GLLGSTEWA [PSM.427] showed an IC50 with HLA-A*0201 [1] above 200 nM.

On to FLLFFWLDRSV [Peptide 63.0138 FLLFFWLDRSV (PAP.20)], for which the values for the IC50 with HLA-A*6802 [8] and with HLA-A*0203 [7] were 364 nM and 2.8 nM, respectively.

In the test with HLA-A*0201 [1], KLGSGNDFEV [PSM.514] gave an IC50 above 200 nM.

For SLQCVSLHLV [peptide 1418.52 (HuK2.170.V10)], the 50% inhibitory concentration (IC50) in the test with HLA-A*0203 [9] worked out at 2.8 nM; in the test with HLA-A*0206 [10] it was 5.2 nM; with HLA-A*0202 [11], 6.3 nM.

For ITLSVGCTGAV [peptide 1418.59 (HuK2.8.T2)], the IC50 with HLA-A*0203 [9] was 40 nM; with HLA-A*0206 [10] it was 206 nM.

Turning to KVTEFMLCAGV [peptide 1418.71, HuK2.191.V11], the IC50 with HLA-A*0201 [12] amounted to 56 nM.

As to MMNDQLMFL [PSM.663], the half-inhibitory concentration (IC50) in the test with HLA-A*0201 [1] was at most 200 nM.

With ATFDIESKV [Peptide 1418.30], the 50% inhibitory concentration (IC50) turned out to be 238 nM in the test with HLA-A*0201 [13], 44 nM with HLA-A*0203 [14], 82 nM with HLA-A*0206 [15] and 258 nM in the test with HLA-A*6802 [16].
